# Reference: US20220273711A1 (University of Washington, published 2022)
# B1: Bim_EGFR (EGFR DARPin tagged with N-terminal Bim peptide) (designed binder)
# chain: MGSHHHHHHGSGSENLYFQGSTDEIWIAQELRRIGDEFNAYYASGSGDLGKKLLEAARAGQDDEVRILMANGADVNADDTWGWTPLHLAAYQGHLEIVEVLLKNGADVNAYDYIGWTPLHLAADGHLEIVEVLLKNGADVNASDYIGDTPLHLAAHNGHLEIVEVLLKHGADVNAQDKFGKTAFDISIDNGNEDLAEILQKLN
# notes: also called anti-EGFR DARPin with N-terminal fusion to Bim; Bim-DARPin
# B2: Bim_Her2 (Her2 DARPin tagged with N-terminal Bim peptide) (designed binder)
# chain: MGSHHHHHHGSGSENLYFQGSTDEIWIAQELRRIGDEFNAYYASGSGDLGKKLLEAARAGQDDEVRILMANGADVNAKDEYGLTPLYLATAHGHLEIVEVLLKNGADVNAVDAIGFTPLHLAAFIGHLEIAEVLLKHGADVNAQDKFGKTAFDISIGNGNEDLAEILQKLN
# notes: also called Anti-Her2 DARPin with N-terminal fusion to Bim; Bim-DARPin
# Experiments:
# [1] = target: T1, EGFR-iRFP (hsEGFR_ecd_tm-iRFP) (human (hs)); experiment: flow cytometry; Bim-DARPin pre-complexed with Bcl2-AF594, 3-fold dilutions from 300 nM to 0.4 nM, mixed K562 cells expressing Her2-eGFP, EGFR-iRFP, both or neither
# T1 construct: Expressed on K562 cells by lentiviral transduction; also called EGFR-iRFP on K562 cells
# Description: (§1) FIG. 16. DARPin binder affinity measured by flow cytometry. Anti-Her2 or anti-EGFR DARPins with N-terminal fusions to Bim were pre-complexed with Bcl2-AF594 and serially diluted 3-fold from 300 nM down to 0.4 nM. This dilution series was used to label a mixed population of K562 cells expressing Her2-eGFP, EGFR-iRFP, both, or neither for one hour at room temperature in a 50 μl incubation volume. The cells were then washed in PBS supplemented with 0.1% bovine serum albumin and analyzed on an LSRII flow cytometer.
# [2] = target: T2, Her2-eGFP (hsHER2_ecd_tm-eGFP) (human (hs)); experiment: as above
# T2 construct: Expressed on K562 cells by lentiviral transduction; also called Her2-eGFP on K562 cells
# Description: as §1
# T1 sequence (chain, as listed by the source limits assumed): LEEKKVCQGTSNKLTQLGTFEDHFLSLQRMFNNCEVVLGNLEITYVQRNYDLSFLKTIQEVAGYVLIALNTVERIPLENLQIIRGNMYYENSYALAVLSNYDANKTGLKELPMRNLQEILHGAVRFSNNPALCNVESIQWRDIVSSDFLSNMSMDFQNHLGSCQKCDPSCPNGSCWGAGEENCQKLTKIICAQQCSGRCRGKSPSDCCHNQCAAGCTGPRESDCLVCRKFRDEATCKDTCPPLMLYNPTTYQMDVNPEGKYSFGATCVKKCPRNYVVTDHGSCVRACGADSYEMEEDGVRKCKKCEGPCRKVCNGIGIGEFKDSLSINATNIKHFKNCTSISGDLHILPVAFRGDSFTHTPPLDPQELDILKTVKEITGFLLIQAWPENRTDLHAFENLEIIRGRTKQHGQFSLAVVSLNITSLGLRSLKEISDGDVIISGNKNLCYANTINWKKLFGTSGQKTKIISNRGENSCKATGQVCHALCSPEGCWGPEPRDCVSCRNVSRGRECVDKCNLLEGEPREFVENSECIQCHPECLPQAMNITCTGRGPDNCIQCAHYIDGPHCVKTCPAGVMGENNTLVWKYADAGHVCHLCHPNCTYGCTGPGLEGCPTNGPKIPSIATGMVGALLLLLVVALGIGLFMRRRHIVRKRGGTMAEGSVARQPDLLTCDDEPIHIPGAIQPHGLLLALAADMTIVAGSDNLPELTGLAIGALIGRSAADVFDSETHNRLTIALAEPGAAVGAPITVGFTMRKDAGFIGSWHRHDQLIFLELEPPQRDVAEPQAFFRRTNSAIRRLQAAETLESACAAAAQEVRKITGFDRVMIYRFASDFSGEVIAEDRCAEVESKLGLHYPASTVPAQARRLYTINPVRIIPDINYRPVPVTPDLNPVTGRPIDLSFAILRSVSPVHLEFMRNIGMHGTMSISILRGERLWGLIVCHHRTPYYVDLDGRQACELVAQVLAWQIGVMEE
binder,measurement,setting,value
B1,Kd,[1],~10 nM
B2,Kd,[2],~10 nM
